# From US9068994
# What was measured:
# Luteinizing Hormone (LH) [1] = target: Luteinizing Hormone (LH) (UniProt P01215); experiment: LH-detecting i-STAT cartridge (LH capture, 414B detection), polystyrene LH 5304 scavenger beads added
# [2] = target: Chorionic Gonadotropin (CG) (UniProt P01215); experiment: FRET quenching titration, BHQ-10 antibody with Alexa Fluor 488 antigen, in solution
# [3] = target: Follicle Stimulating Hormone (FSH) (UniProt P01215); experiment: as above
# Luteinizing Hormone (LH) [4] = target: Luteinizing Hormone (LH) (UniProt P01215); experiment: as above
# [5] = target: Thyroid Stimulating Hormone (TSH) (UniProt P01215); experiment: as above
# [6] = target: Thyroid Stimulating Hormone (TSH) (UniProt P01215); experiment: FRET competition, unlabelled Ab pre-bound to Alexa488 antigen; competitor: BHQ-labelled M4
# [7] = target: Thyroid Stimulating Hormone (TSH) (UniProt P01215); experiment: i-STAT sandwich cartridge with TSH; row Ab on capture beads; detection conjugate: 5409-ALP
# [8] = target: Thyroid Stimulating Hormone (TSH) (UniProt P01215); experiment: i-STAT sandwich cartridge with TSH; row Ab on capture beads; detection conjugate: T25C-ALP
# [9] = target: Thyroid Stimulating Hormone (TSH) (UniProt P01215); experiment: i-STAT sandwich cartridge with TSH; row Ab on capture beads; detection conjugate: ME130-ALP
# [10] = target: Thyroid Stimulating Hormone (TSH) (UniProt P01215); experiment: FRET competition, unlabelled Ab pre-bound to Alexa488 antigen; competitor: BHQ-labelled 414B
# [11] = target: Thyroid Stimulating Hormone (TSH) (UniProt P01215); experiment: FRET competition, unlabelled Ab pre-bound to Alexa488 antigen; competitor: BHQ-labelled 5409
# [12] = target: Thyroid Stimulating Hormone (TSH) (UniProt P01215); experiment: FRET competition, unlabelled Ab pre-bound to Alexa488 antigen; competitor: BHQ-labelled T25C
# [13] = target: Thyroid Stimulating Hormone (TSH) (UniProt P01215); experiment: FRET competition, unlabelled Ab pre-bound to Alexa488 antigen; competitor: BHQ-labelled ME130
# [14] = target: Thyroid Stimulating Hormone (TSH) (UniProt P01215); experiment: i-STAT sandwich cartridge with TSH; row Ab on capture beads; detection conjugate: TSH Ab 544-ALP
# [15] = target: Thyroid Stimulating Hormone (TSH) (UniProt P01215); experiment: FRET competition, unlabelled Ab pre-bound to Alexa488 antigen; competitor: BHQ-labelled TSH Ab 544
# [16] = target: Chorionic Gonadotropin (CG) (UniProt P01215); experiment: i-STAT sandwich cartridge, 0.4 mIU/L TSH plus CG; row Ab capture; detection Ab: 5409
# Luteinizing Hormone (LH) [17] = target: Luteinizing Hormone (LH) (UniProt P01215); experiment: i-STAT sandwich cartridge, 0.4 mIU/L TSH plus LH; row Ab capture; detection Ab: 5409
# [18] = target: Follicle Stimulating Hormone (FSH) (UniProt P01215); experiment: i-STAT sandwich cartridge, 0.4 mIU/L TSH plus FSH; row Ab capture; detection Ab: 5409
# [19] = target: Thyroid Stimulating Hormone (TSH) (UniProt P01215); experiment: i-STAT sandwich cartridge with TSH; row Ab on capture beads; detection conjugate: M4-ALP
# [20] = target: Chorionic Gonadotropin (CG) (UniProt P01215); experiment: i-STAT sandwich cartridge, 0.4 mIU/L TSH plus CG; row Ab capture; detection Ab: TSH Ab 544
# Luteinizing Hormone (LH) [21] = target: Luteinizing Hormone (LH) (UniProt P01215); experiment: i-STAT sandwich cartridge, 0.4 mIU/L TSH plus LH; row Ab capture; detection Ab: TSH Ab 544
# [22] = target: Follicle Stimulating Hormone (FSH) (UniProt P01215); experiment: i-STAT sandwich cartridge, 0.4 mIU/L TSH plus FSH; row Ab capture; detection Ab: TSH Ab 544
# [23] = target: Chorionic Gonadotropin (CG) (UniProt P01215); experiment: i-STAT sandwich cartridge, 0.4 mIU/L TSH plus CG; row Ab capture; detection Ab: T25C
# Luteinizing Hormone (LH) [24] = target: Luteinizing Hormone (LH) (UniProt P01215); experiment: i-STAT sandwich cartridge, 0.4 mIU/L TSH plus LH; row Ab capture; detection Ab: T25C
# [25] = target: Chorionic Gonadotropin (CG) (UniProt P01215); experiment: i-STAT sandwich cartridge, 0.4 mIU/L TSH plus CG; row Ab capture; detection Ab: ME130
# [26] = target: Follicle Stimulating Hormone (FSH) (UniProt P01215); experiment: i-STAT sandwich cartridge, 0.4 mIU/L TSH plus FSH; row Ab capture; detection Ab: T25C
# Luteinizing Hormone (LH) [27] = target: Luteinizing Hormone (LH) (UniProt P01215); experiment: i-STAT sandwich cartridge, 0.4 mIU/L TSH plus LH; row Ab capture; detection Ab: ME130
# [28] = target: Follicle Stimulating Hormone (FSH) (UniProt P01215); experiment: i-STAT sandwich cartridge, 0.4 mIU/L TSH plus FSH; row Ab capture; detection Ab: ME130
# [29] = target: Thyroid Stimulating Hormone (TSH) (UniProt P01215); experiment: i-STAT sandwich cartridge with TSH; row Ab on capture beads; detection conjugate: 414B-ALP
# [30] = target: Chorionic Gonadotropin (CG) (UniProt P01215); experiment: i-STAT sandwich cartridge, 0.4 mIU/L TSH plus CG; row Ab capture; detection Ab: 414B
# Luteinizing Hormone (LH) [31] = target: Luteinizing Hormone (LH) (UniProt P01215); experiment: i-STAT sandwich cartridge, 0.4 mIU/L TSH plus LH; row Ab capture; detection Ab: 414B
# [32] = target: Follicle Stimulating Hormone (FSH) (UniProt P01215); experiment: i-STAT sandwich cartridge, 0.4 mIU/L TSH plus FSH; row Ab capture; detection Ab: 414B
Substance,Kd [2],Kd [3],Kd (Luteinizing Hormone (LH) [4]),Kd [5],relative fluorescence (relative (same pair = 1.0)) [6],electrochemical current (sandwich signal) [7],electrochemical current (sandwich signal) [8],electrochemical current (sandwich signal) [9],relative fluorescence (relative (same pair = 1.0)) [10],relative fluorescence (relative (same pair = 1.0)) [11],relative fluorescence (relative (same pair = 1.0)) [12],relative fluorescence (relative (same pair = 1.0)) [13],electrochemical current (sandwich signal) [14],relative fluorescence (relative (same pair = 1.0)) [15],CG CR (%) (cross reactivity) [16],LH CR (%) (cross reactivity) (Luteinizing Hormone (LH) [17]),FSH CR (%) (cross reactivity) [18],electrochemical current (sandwich signal) [19],further results
"Biospacific LH 5304 monoclonal antibody (mus beta-LH, Catalog #5304 SP-5)",,,,,,,,,,,,,,,,,,,signal left after scavenger beads (% of signal without beads) (Luteinizing Hormone (LH) [1]): 4%
"Fitzgerald 10C-CR2151M4 TSH mouse monoclonal antibody, clone 157155",554 nM,210 nM,300 nM,0.18 nM,1,20.7 nA,22.5 nA,39.9 nA,0.9,0.94,0.74,0.76,0 nA,0.98,,,,,
Biospacific Cat#5409 SPTNE-5 TSH mouse monoclonal antibody,500 nM,1000 nM,1000 nM,0.1 nM,0.9,,34.6 nA,53.6 nA,0.88,1,0.78,0.78,1.41 nA,0.93,,,,15.2 nA,CG CR (%) (cross reactivity) [23]: 0.96%; LH CR (%) (cross reactivity) (Luteinizing Hormone (LH) [24]): 3.76%; CG CR (%) (cross reactivity) [25]: 0.78%; FSH CR (%) (cross reactivity) [26]: 0.65%; LH CR (%) (cross reactivity) (Luteinizing Hormone (LH) [27]): 10.1%; FSH CR (%) (cross reactivity) [28]: 2.43%
TSH Ab 544 (Abbott Diagnostics Division) (antibody),210 nM,1000 nM,1000 nM,1.31 nM,0.92,7.98 nA,22.4 nA,34.9 nA,0.89,0.96,0.71,0.72,,1,,,,0.11 nA,CG CR (%) (cross reactivity) [30]: 117%; LH CR (%) (cross reactivity) (Luteinizing Hormone (LH) [31]): 11.8%; FSH CR (%) (cross reactivity) [32]: 7.15%; electrochemical current (sandwich signal) [29]: 25 nA

# The next lines start with results.
Kd [2],Kd [3],Kd (Luteinizing Hormone (LH) [4]),Kd [5],relative fluorescence (relative (same pair = 1.0)) [6],electrochemical current (sandwich signal) [7],electrochemical current (sandwich signal) [8],electrochemical current (sandwich signal) [9],relative fluorescence (relative (same pair = 1.0)) [10],relative fluorescence (relative (same pair = 1.0)) [11],relative fluorescence (relative (same pair = 1.0)) [12],relative fluorescence (relative (same pair = 1.0)) [13],electrochemical current (sandwich signal) [14],relative fluorescence (relative (same pair = 1.0)) [15],CG CR (%) (cross reactivity) [16],LH CR (%) (cross reactivity) (Luteinizing Hormone (LH) [17]),FSH CR (%) (cross reactivity) [18],electrochemical current (sandwich signal) [19],Substance,further results
0.05 nM,0.1 nM,0.05 nM,0.04 nM,0.75,40.3 nA,,,1,0.81,0.76,0.86,10.2 nA,0.83,84.6%,348%,260%,41.3 nA,"Seradyn anti-alpha-LH monoclonal antibody Cat#MIT0414B, clone BB3.1.3",CG CR (%) (cross reactivity) [20]: 39.2%; LH CR (%) (cross reactivity) (Luteinizing Hormone (LH) [21]): 467%; FSH CR (%) (cross reactivity) [22]: 219%
40 nM,300 nM,35 nM,0.08 nM,0.92,49.7 nA,,0.68 nA,0.97,0.95,1,0.97,0.83 nA,0.97,13.7%,9.89%,6.25%,40.9 nA,"Fitzgerald Cat#10-T25C TSH mouse monoclonal antibody, clone M94206",electrochemical current (sandwich signal) [29]: 0.82 nA
45 nM,70 nM,54 nM,0.04 nM,0.77,54.7 nA,0.1 nA,,0.99,0.82,0.88,1,10.8 nA,0.82,11.8%,11.1%,3.9%,50.5 nA,AbCam ME-130 (ab9390) TSH mouse monoclonal antibody,
